From publication PMC5452045

Tests used:
His‐Mis18β (human) = His‐Mis18β (human) (UniProt O43482); assay: SEC-MALS; 100 μl of about 1 mg/ml on Superdex 200 10/300 GL; 50 mM HEPES pH 8.0, 150 mM NaCl, 1 mM TCEP; 22°C; subunit numbers from measured against calculated MW
His‐GFP‐Mis18β (human) = His‐GFP‐Mis18β (human) (UniProt O43482); assay: as above
His‐GFP‐Mis18β (human), sequence (O43482 whole entry): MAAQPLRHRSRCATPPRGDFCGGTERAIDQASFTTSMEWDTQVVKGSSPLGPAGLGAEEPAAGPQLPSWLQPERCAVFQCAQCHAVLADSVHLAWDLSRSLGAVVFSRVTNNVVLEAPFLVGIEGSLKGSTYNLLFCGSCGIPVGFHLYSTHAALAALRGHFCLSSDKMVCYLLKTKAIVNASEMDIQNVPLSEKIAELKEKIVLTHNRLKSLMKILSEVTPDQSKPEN

His‐Mis18β (human), sequence (O43482 whole entry): as above
His‐Mis18α, sequence (Q9NYP9 whole entry): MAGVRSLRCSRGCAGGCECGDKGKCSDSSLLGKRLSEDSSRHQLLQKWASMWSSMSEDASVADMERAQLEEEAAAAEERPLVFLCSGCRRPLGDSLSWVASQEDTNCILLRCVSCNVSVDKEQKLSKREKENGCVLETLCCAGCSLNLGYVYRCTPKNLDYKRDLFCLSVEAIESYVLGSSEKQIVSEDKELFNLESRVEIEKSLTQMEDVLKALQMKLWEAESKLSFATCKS
His‐GFP‐Mis18α, sequence (Q9NYP9 whole entry): as above

His‐GFP‐Mis18α (from UniProt Q9NYP9 1-233) (natural protein)
stoichiometry N (His-GFP-Mis18α per His-Mis18β (4:2)) (His‐Mis18β (human)): 2

His‐Mis18α (from UniProt Q9NYP9 1-233) (natural protein)
stoichiometry N (His-Mis18α per His-GFP-Mis18β (4:2)) (His‐GFP‐Mis18β (human)): 2
